In article PMC11122373, “Structure-Based De Novo Design for the Discovery of Miniprotein Inhibitors Targeting Oncogenic Mutant BRAF” (International Journal of Molecular Sciences, 2024):
Positions count from the first letter of the chain named.

B1: miniprotein 94 (designed binder)
chain: PCVWTGFREFKGGQRGKERLAMCEDLMCEADWWGGNQNRDRGSIFTRVKGSGALGKISIAERGARNNAV
notes: de novo designed miniprotein of three helices and 69 amino acids; scaffold from residues 164-232 of 14-3-3, all 69 residues allowed to mutate; Cloned into pMAL-c5x with C-terminal Myc tag; source: E. coli BL21(DE3), purified (MBPTrap HP column); not shown: MBP, N-terminal, kept; Myc, C-terminal, kept
B2: miniprotein 63 (designed binder)
chain: SIVGQGAQQMLVSKIKCTVANEWLDRSMLTSKFAMFVLLNEIDMLDIMLEAMGISLLEDREHQTRRVNY
notes: de novo designed miniprotein of three helices and 69 amino acids; scaffold from residues 164-232 of 14-3-3, all 69 residues allowed to mutate; Cloned into pMAL-c5x (NdeI, EcoRI) with C-terminal Myc tag; source: E. coli BL21(DE3), purified (MBPTrap HP column); not shown: MBP, N-terminal, kept; Myc, C-terminal, kept
B3: miniprotein 76 (designed binder)
chain: B2 chain with V3Q, Q8R, M10C, I15L, S27W, L56I, L57E
notes: as for B2

Target: T1, V600E mutant BRAF^15mut (BRAF kinase domain with 15 solubilizing mutations and V600E) (UniProt P15056 444-723, I543A | I544S | I551K | Q562R | L588N | K630S | Y673S | A688R | L706S | Q709R | …)
T1 construct: BRAF kinase domain, residues 444-723 of UniProt P15056, with 15 solubilizing mutations (Phe667 kept intact) and V600E; Cloned into pET-32a (NdeI, XhoI) with N-terminal MBP; also called VRAF murine sarcoma viral oncogene homologue B1 kinase domain; source: E. coli BL21(DE3), purified (MBPTrap HP column)
Assay: ELISA; 10 ug/mL V600E mutant BRAF^15mut coated in a 96-well plate; blocked with 5% skim milk in 20 mM Tris-HCl pH 7.5, 150 mM NaCl; purified Myc-tagged proteins (MEK1, MBP, miniproteins) added at 0, 200 and 2000 nM; detected with anti-c-Myc antibody and HRP-conjugated anti-mouse IgG, TMB, absorbance at 450 nm; triplicate
Details: both partners purified

T1 sequence (P15056 other isoform, or with tags, fused parts or gaps with the stated changes): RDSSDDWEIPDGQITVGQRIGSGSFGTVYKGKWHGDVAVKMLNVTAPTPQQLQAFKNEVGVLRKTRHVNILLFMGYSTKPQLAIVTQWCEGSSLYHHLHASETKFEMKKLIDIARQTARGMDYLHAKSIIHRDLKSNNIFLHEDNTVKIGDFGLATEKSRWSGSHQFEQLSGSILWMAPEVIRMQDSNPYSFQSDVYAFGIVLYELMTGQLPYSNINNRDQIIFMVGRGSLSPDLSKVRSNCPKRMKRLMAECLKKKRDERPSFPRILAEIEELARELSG

Row | Binder | binding result
1 | B1 | binds
2 | B2 | binds
3 | B3 | binds
